The values below come from patent US20140005119A1, “COMPOSITIONS AND METHODS FOR INHIBITING THE ACTIVITY OF P110a MUTANT PROTEINS” (Case Western Reserve University, priority 2012, published 2014).

Where no end group is shown, it is not given here.

The target in data set [1] is T1, IRS1-p110α E545K interaction in DLD1 cells (Homo sapiens, UniProt P35568).
T1 construct: endogenous in cells; host or cells: DLD1 p110α E545K 3×FLAG knock-in cells (rAAV gene targeting of the endogenous allele)
T1 sequence (P35568 1-1242): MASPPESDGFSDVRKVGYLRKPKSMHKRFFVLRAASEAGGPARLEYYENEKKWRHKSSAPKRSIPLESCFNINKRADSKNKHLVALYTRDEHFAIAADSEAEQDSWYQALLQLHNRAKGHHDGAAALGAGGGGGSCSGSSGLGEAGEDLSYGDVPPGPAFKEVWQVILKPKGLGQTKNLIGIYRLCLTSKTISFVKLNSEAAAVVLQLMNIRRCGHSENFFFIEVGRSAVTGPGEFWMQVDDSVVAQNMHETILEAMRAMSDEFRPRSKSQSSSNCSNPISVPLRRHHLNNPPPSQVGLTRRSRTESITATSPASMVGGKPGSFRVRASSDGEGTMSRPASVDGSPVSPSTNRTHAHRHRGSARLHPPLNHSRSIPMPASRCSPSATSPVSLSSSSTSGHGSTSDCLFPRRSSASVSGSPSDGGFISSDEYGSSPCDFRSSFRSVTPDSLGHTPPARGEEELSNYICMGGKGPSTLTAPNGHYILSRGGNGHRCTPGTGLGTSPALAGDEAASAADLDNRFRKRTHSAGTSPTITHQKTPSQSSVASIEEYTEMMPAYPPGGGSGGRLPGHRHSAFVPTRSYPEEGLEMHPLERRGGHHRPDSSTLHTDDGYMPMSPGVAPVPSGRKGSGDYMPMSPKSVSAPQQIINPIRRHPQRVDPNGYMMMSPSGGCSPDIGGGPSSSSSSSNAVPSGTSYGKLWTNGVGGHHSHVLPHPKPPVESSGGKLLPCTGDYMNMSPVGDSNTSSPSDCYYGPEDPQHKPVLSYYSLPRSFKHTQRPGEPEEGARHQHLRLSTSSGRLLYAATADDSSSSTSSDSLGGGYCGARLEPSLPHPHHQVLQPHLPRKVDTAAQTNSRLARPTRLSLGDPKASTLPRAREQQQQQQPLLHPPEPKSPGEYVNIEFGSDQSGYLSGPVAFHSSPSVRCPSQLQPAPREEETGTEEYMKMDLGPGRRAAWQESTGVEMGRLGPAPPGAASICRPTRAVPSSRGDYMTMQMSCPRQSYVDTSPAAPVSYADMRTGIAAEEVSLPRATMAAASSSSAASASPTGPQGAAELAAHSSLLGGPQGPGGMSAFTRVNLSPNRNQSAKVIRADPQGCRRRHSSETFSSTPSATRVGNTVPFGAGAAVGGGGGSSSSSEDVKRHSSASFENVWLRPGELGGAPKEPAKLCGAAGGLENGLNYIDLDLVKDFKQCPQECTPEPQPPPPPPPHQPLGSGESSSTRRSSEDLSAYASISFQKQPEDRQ
In words: Co-IP after peptide added to culture medium of p110α E545K 3×FLAG KI DLD1 cells. Type of data set: cell-based. Also noted: dose or concentration left out as unconfirmed. Particulars: peptide added to cell culture medium for 16 hr. Here is the method:
FIG. 4(A-F) illustrate: (A) Schematic diagram of linear and stapled WT and mutant peptides derived from p110α (SEQ ID NOs: 5, 6, 7 and 8). (B) Immunoblots of cell lysates immunoprecipitated with beads conjugated with anti-FLAG antibodies and then blotted with the indicated antibodies. Linear or stapled WT and mutant peptide were added into culture medium of the p110α E545K 3×FLAG KI cells for 16 hr. (C) Immunoblots of cell lysates immunoprecipitated with anti-p110α antibodies and then blotted with the indicated antibodies. Vaco481 CRC cells were treated with the stapled mutant peptides at the indicated concentration. (D) Immunoblots of cell lysates blotted with the indicated antibodies. The indicated cell lines were treated with the stapled mutant peptide. (E) Immunoblots of cell lysates blotted with the indicated antibodies. The indicated cancer cell lines were treated or untreated with stapled WT or mutant peptide at […] for 2 hr. (F) Immunoblots of cell lysates were blotted with the indicated antibodies. The indicated cancer cell lines were treated with or without […] of stapled mutant peptide for 2 hr.
(§1) For Co-immunoprecipitation (Co-IP), cells were harvested, washed with PBS, and then lysed in IP buffer (50 mMTris [pH 7.4], 150 mMNaCl, 5 mMEDTA [pH 8.0], 0.5% NP40, 1 mM PMSF, complete Protease Inhibitor Cocktail tablet [Roche]; supplemented with phosphatase inhibitors [1 mM Na3VO4, 20 mM NaF, 0.1 mM b-glycerophosphate, 20 mM sodium pyrophosphate] when necessary). For immunoblotting (IB) of phospho-specific proteins, unless stated otherwise, cells were lysed in urea buffer (100 mM NaH2PO4, 10 mM Tris-HCl, 8 M Urea, 1 mM Na3VO4, 20 mM NaF, 0.1 mM β-glycerophosphate, 20 mM sodium pyrophosphate, supplemented with complete Protease Inhibitor Cocktail tablet [Roche], pH 8.0). Lysates were then cleared by centrifugation (14,000 rpm, 10 min) and protein concentration in supernatants was determined with a BCA protein assay kit (Pierce, Rockford, Ill.). Equal amounts of total protein were used for IP or IB.

Data set [2] addresses T2, interaction between p110α E545K and IRS1 (Homo sapiens, UniProt P35568).
T2 construct: In KI DLD1 cells, IRS1 was co-immunoprecipitated with p110α E545K but not the WT p110α; endogenous in cells; host or cells: DLD1 p110α E545K 3×FLAG knock-in cells (rAAV gene targeting of the endogenous allele)
T2 sequence (P35568 1-1242): T1 sequence (P35568 1-1242)
The experiment in a line: Peptide competition assay in cell lysates (anti-FLAG immunoprecipitation, anti-IRS1 blot). Format: binding. Particulars: peptide added into cell lysates of p110α E545K 3×FLAG KI cells. The protocol: FIGS. 3(A-M) illustrate: (A, B) Mapping peptides (P3, SEQ ID NO: 1; P4 SEQ ID NO: 2; P5, SEQ ID NO: 3; P6, SEQ ID NO: 4) derived from mutant p110α that inhibit interaction between IRS1 and p110α E545K. The indicated peptides were added into cell lysates made from the p110α E545K 3×FLAG KI cells. Cell lysates were immunoprecipitated with beads conjugated with anti-FLAG antibodies and then blotted with anti-IRS1 antibodies. (C) Immunoblots of cell lysates made from the p110α E545K 3×FLAG KI cells. Cell lysates were immunoprecipitated with beads conjugated with anti-FLAG antibodies and then blotted with the indicated antibodies. (D) Immunoblots of cell lysate of Myc-tagged IRS1 plasmid, which co-transfected an ABD domain deletion construct of the FLAG-tagged p110α E545K mutant (ΔABD), incubated with the indicated amount of stapled p110α mutant peptides, and then immunoprecipitated with anti-FLAG antibodies and blotted with the indicated antibodies. (J, K) Immunoblot and graph of purified recombinant p110α E545K mutant proteins mixed with the indicated components and quantified using an in vitro lipid kinase assay. (L, M) Immunoblots of the indicated cell lines serum-starved, stimulated with 1 μg/ml insulin for 30 min, and then treated with or without the indicated peptides. Cell lysates were blotted with the indicated antibodies. All error bars show mean±SEM. *p<0.05, **p<0.001, t test.
as §1
For in vitro peptide competition assay, the p110α mutant-FLAG-tagged cells were grown to 90% confluency, serum-starved overnight, and lysed as described previously. Peptides were then added to the cell lysates, incubated for 30 min at 4° C. and followed by immunoprecipitation assay.

Data set [3] deals with insulin receptor substrate 1 (IRS1) (UniProt P35568).
The target in data set [4] is T3, wild-type p110α (endogenous, untagged) (UniProt P42336 1-1068).
T3 construct: also called WT p110α
T3 sequence (P42336 whole entry): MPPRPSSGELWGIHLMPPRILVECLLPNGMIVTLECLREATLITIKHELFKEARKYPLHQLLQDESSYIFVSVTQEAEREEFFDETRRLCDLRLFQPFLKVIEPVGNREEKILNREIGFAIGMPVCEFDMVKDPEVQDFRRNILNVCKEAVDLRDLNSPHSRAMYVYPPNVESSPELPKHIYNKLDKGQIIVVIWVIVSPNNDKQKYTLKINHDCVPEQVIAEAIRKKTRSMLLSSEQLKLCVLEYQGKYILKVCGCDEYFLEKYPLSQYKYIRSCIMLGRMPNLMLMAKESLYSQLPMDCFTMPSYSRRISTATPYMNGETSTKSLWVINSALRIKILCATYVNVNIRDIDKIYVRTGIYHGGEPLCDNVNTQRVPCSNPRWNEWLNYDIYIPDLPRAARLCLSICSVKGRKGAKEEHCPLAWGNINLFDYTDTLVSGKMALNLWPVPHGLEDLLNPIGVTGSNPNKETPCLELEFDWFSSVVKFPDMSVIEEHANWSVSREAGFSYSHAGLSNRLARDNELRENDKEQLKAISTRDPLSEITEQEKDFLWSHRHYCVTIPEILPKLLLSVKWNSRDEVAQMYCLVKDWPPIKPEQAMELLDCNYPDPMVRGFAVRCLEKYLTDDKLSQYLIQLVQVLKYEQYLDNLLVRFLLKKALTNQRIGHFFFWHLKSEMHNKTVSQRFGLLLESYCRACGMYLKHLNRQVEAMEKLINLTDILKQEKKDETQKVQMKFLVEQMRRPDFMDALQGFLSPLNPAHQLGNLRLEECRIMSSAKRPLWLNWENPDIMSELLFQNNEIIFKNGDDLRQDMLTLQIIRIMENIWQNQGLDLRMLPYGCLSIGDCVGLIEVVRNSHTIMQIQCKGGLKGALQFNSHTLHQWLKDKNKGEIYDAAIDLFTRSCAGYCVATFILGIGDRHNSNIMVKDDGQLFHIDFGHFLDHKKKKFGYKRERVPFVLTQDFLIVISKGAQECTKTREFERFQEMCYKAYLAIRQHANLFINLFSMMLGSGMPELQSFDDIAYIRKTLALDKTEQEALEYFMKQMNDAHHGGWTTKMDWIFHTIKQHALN
In words: pull-down with His-tagged IRS1 fragment from WT-only DLD1 lysates (FIG. 1B). The source says:
The altered interaction properties of the mutant forms of p110α prompted us to map the minimal essential regions of IRS1 required for its interaction with p110α E545K mutant protein. For this study, we made a series of 6×His-tagged IRS1 truncation constructs (FIGS. 1A and 1C). The His-tagged IRS1 proteins were first expressed in Eschericia coli and purified with Ni-NTA beads. Then the purified proteins were used to pull down p110α from DLD1 cells expressing either the WT p110α only or the p110α E545K mutant only. With these proteins, we first mapped the mutant p110α interaction domain to the middle part of IRS1 (amino acid [AA] 585-962) (FIG. 1B). This fragment contains three YxxM motifs that mediate the pY dependent IRS1-p85 protein interaction. We thus constructed an unphosphorylatable IRS1Y3F mutant fragment (FIG. 1A). […] In contrast, neither of the single region deletions could interrupt the IRS1 mutant p110α interaction. […] Finally, similar results were also observed when the IRS1D was expressed in p110α E545K 3×FLAG KI DLD1 cells.

Regarding “18-AA mutant peptide: linear 18-AA E545K mutant peptide corresponding to the C-terminal α-helical motif of p110α helical domain (SEITKQEKDFLWSHRHYC-OH; listed as Homo sapiens)”, in data set [1], the “disruption of IRS1-p110α E545K interaction in DLD1 cells” value is reported as “neither the linear mutant peptide nor the stapled WT peptide affected the interaction”. Moreover, the figures for the “inhibition of the interaction between p110α E545K and IRS1” value in data set [2] and in data set [2] (listed as peptide corresponding to the C-terminal α-helical motif) were “moderate inhibition” and “inhibited”, respectively.
For “30-AA mutant peptide: linear 30-AA p110α E545K mutant peptide forming two α-helix domains flanking the mutation site (EQLKAISTRDPLSEITKQEKDFLWSHRHYC-OH; listed as Homo sapiens)”, the “inhibition of the interaction between p110α E545K and IRS1” value in data set [2] was “inhibited”.
Same read-out and setting: next, “N-terminal 21-AA mutant peptide: linear N-terminal 21-AA mutant peptide corresponding to the N-terminal α-helical motif (EQLKAISTRDPLSEITKQEKD-OH; listed as Homo sapiens)”: “no effect”.
Same read-out and setting: next, “WT peptide: linear 30-AA wild-type p110α counterpart of the 30-AA E545K mutant peptide (EQLKAISTRDPLSEITEQEKDFLWSHRHYC-OH; listed as Homo sapiens) [reference compound]”: “failed to cause any inhibition”.
With “p110α E545K mutant (endogenous, untagged)”, in data set [3], the AKT phosphorylation result was “the stapled mutant peptide, but not the WT counterpart, reduced AKT phosphorylation in mutant-only DLD1 cells”; the “AKT phosphorylation at both T308 and S473 residues” value was “treatment of cancer cell lines (DLD1, H460, and MDA-MB361) harboring p110α E545K ... with the stapled mutant peptide resulted in reduced AKT phosphorylation”.

B1: 6×His-tagged IRS1 middle fragment (AA 585-962) (other, UniProt P35568 585-962, looked up)
chain: EGLEMHPLERRGGHHRPDSSTLHTDDGYMPMSPGVAPVPSGRKGSGDYMPMSPKSVSAPQQIINPIRRHPQRVDPNGYMMMSPSGGCSPDIGGGPSSSSSSSNAVPSGTSYGKLWTNGVGGHHSHVLPHPKPPVESSGGKLLPCTGDYMNMSPVGDSNTSSPSDCYYGPEDPQHKPVLSYYSLPRSFKHTQRPGEPEEGARHQHLRLSTSSGRLLYAATADDSSSSTSSDSLGGGYCGARLEPSLPHPHHQVLQPHLPRKVDTAAQTNSRLARPTRLSLGDPKASTLPRAREQQQQQQPLLHPPEPKSPGEYVNIEFGSDQSGYLSGPVAFHSSPSVRCPSQLQPAPREEETGTEEYMKMDLGPGRRAAWQESTGVEM
notes: range 585-962; Expressed in E. coli BL21, purified on Ni-NTA beads; also called middle part of IRS1; middle fragment of IRS1; not shown: 6×His tag
Take B1: the binding result in data set [4] is listed as “no binding”.
